Data taken from patent US9200265B2, “Anti-cocaine compositions and treatment” (priority 2006, dated 2015).
Numbering of substitutions follows the chain as printed. Names and notes keep the numbering of the source. Values joined by “and” are separate entries in the source; they are usually repeats but may differ in a detail not shown here. Equal entries are not always repeated. Where two headings read alike, the source gives them in different places.

How the values were obtained:
CocE [1] = target: T1, CocE (Rhodococcus sp., UniProt Q9L9D7); test: Stabilization against 37° C.-induced formation of high molecular weight CocE aggregates (gel); type: physicochemical, Rhodococcus sp. MB 1; conditions: for 37° C.-induced formation of high molecular weight CocE aggregates: 0.1 mg/ml enzyme, mM range
T1 construct: generating a full-length CocE gene encoding the T172R mutation; His6 (C); made in house; host or cells: E. coli (pET-22b(+))
Experimental: (§1) Plasmids containing the mutations were transformed into E. coli BL21 cells and IPTG-induced enzyme was purified on Ni-Agarose. Expressed proteins were then tested for enzymatic activity and for thermostability at 37° C. Enzyme activity was measured using the spectrophotometric assay as described in Example 1. Thermostability was also tested via the spectrophotometric assay by pre-incubation of both wild-type and mutants at 37° C. for various times. Additionally, the nature of the thermo-instability of both the wild-type and T172R mutant was analyzed by polyacrylamide gel electrophoresis under denaturing and non-denaturing conditions. Briefly, mutant and wild-type enzyme at 0.1 mg/ml were incubated at 37° C. for various time-points, cooled to 4° C., mixed with SDS-loading dye containing-mercaptoethanol and run on 10% SDS-PAGE gels (denaturing conditions) or run on native 10% polyacrylamide gels (non-denaturing conditions) at 4° C. Gels were fixed with 10% methanol, 7% acetic acid for 30 minutes, and then stained with Sypro-Ruby protein gel stain (Molecular Probes, Invitrogen) for 3 hours. Protein staining was visualized under UV-light using an AlphaImager™ 3400 (Alpha Innotech). Finally, the exact melting temperature of both the wild-type and T172R mutant were determined by circular dichroism using a JASCO-810 spectropolarimeter driven by a JASCO V500/FP-750 analysis program for Windows. The CD spectra were measured in millidegrees and normalized against PBS buffer.
Cocaine esterase (CocE) cleaves cocaine to produce Benzoic acid and Ecgonine methyl ester. Briefly, alternative substrates and inhibitors of cocaine, as well as compounds able to thermostabilize the enzyme, were investigated generally by substituting amide and thiol analogues at the reactive ester bond, or removing the bond (for inhibitors), substituting benzoyl analogues in place of the benzoic acid leaving group, and/or removing or altering the methyl-ester group on the ecgonine portion of the molecule. As discussed below, it was determined that some substrates, products, and inhibitors stabilized thermal denaturation of wild type CocE, as well as prevented thermally-induced aggregation in gel electrophoresis.
Cocaine is the natural substrate of Cocaine esterase (CocE). Cocaine cleavage was monitored by a drop in absorbance at 240 nm. Cocaine (mM range) prevented 37° C.-induced formation of high molecular weight CocE aggregates (0.1 mg/ml enzyme concentrations) (see, e.g., FIG. 33). Cocaine (uM quantities) stabilized 37° C.-induced activity loss (see, e.g., FIG. 34), although the mechanism of this stabilization is complicated due to substrate inhibition at higher concentrations.

CocE [2] = target: T1, CocE; test: Inhibition of CocE (cleavage of 4-nitrophenyl acetate); type: biochemical, Rhodococcus sp. MB 1
Experimental: Benzoic acid prevented 37° C.-induced formation of high molecular weight CocE aggregates (0.1 mg/ml enzyme concentrations) (see, e.g., FIG. 35). Benzoic acid (uM quantities) stabilized 37° C.-induced activity loss (see, e.g., FIG. 36), although the mechanism of this stabilization is complicated due to substrate inhibition at higher concentrations.
CocE catalyzes the cleavage of 4-nitrophenyl acetate (4NPA) to 4-nitrophenol (4NP) and acetate. The cleavage reaction was monitored by observation of product formation at 400 nm. Both 4NP and 4NPA (mM range) prevented 37° C.-induced formation of high molecular weight CocE aggregates (0.1 mg/ml enzyme concentrations).

[3] = test system: WIN 35065-2 induced toxicity; test: WIN 35065-2 induced lethality in rats; conditions: i.p., rats
[4] = Melting temperature by circular dichroism (near-UV); type: physicochemical
Experimental: as §1

[5] = Cocaine spectrophotometric assay (240 nm), Michaelis-Menten kinetics
[6] = Non-denaturing polyacrylamide gel electrophoresis after incubation at 37° C. (aggregation); type: physicochemical; conditions: non-denaturing gels, 0.1 mg/ml
Experimental: as §1, with “Protein staining was visualized under UV-light using an AlphaImager™ 3400 (Alpha Innotech).” left out

[7] = Low-UV CD spectra melt with CCA deconvolution; type: physicochemical; conditions: for #3 formation: accumulation of the fully melted protein; for #2 formation: formation of the intermediate state; for #1 melt: initial spectra melts, 0.2 mg/ml; for #2 melt: melt of the intermediate state
Experimental: Low-UV CD spectra data were obtained using an Aviv Spectropolarimeter Mode 400, with the help of Norma Greenfield, UMDNJ, using a 5-cell holder and 0.2 mg/ml protein concentrations. Raw data values obtained were blanked on control PBS, smoothed, and deconvoluted using the CCA algorithm as described by A. Perczel, K. Park, and G. D. Fasman, [Analysis of the circular dichroism spectrum of proteins using the convex constraint algorithm: a practical guide. Analytical Biochemistry 203, 83-93 (1992).] This algorithm finds the minimum number of curves needed to reconstruct a data set, and expresses the percentage each curve contributes to the data set as a function of temperature.
Below is presented a low UV CCA denconvolution analysis of CocE WT and 4 mutants, obtained in a single CD spectra melt using a 5-cell holder. The experiment was performed over the period of 8 hours, from 0-80° C.
Temperature dependent melting was observed between the wavelengths tested (200-250 nm), and the smoothed spectra for each mutant are shown in FIG. 29. […] Dose response analysis was used to approximate the temperature at which the initial spectra melts (1), the formation and melt of the intermediate state (2), and the accumulation of the fully melted protein (3).

[8] = test system: cocaine-induced lethality; test: Rodent model of acute cocaine toxicity (convulsions and lethality) in rats
[9] = against (-) cocaine; cited from earlier work

**Q.** With `O=[N+]([O-])c1ccc(O)cc1` [4NP, 4-nitrophenol] as the molecule, how does the “37° C.-induced formation of high molecular weight CocE aggregates” value (CocE [1]) read?
**A.** prevented

**Q.** With `OB(O)c1ccccc1` [Phenylboronic acid] as the molecule, how does the Ki (CocE [2]) read?
**A.** 250 nM

**Q.** And the EC50 (CocE [1])?
**A.** 200 nM

**Q.** Which LD100 [3] does the source give for `COC(=O)[C@H]1[C@@H](c2ccccc2)C[C@@H]2CC[C@H]1N2C` [WIN-35065-2, reference compound] here?
**A.** 560 mg/kg

**Q.** Which “37° C.-induced formation of high molecular weight CocE aggregates” value (CocE [1]) does the source give for `CC(=O)Oc1ccc([N+](=O)[O-])cc1` [4NPA, 4-nitrophenyl acetate] here?
**A.** prevented

B1: T172R: mutant CocE polypeptide, SEQ ID NO: 25 (protein)
chain: MVDGNYSVASNVMVPMRDGVRLAVDLYRPDADGPVPVLLVRNPYDKFDVFAWSTQSTNWLEFVRDGYAVVIQDTRGLFASEGEFVPHVDDEADAEDTLSWILEQAWCDGNVGMFGVSYLGVTQWQAAVSGVGGLKAIAPSMASADLYRAPWYGPGGALSVEALLGWSALIGRGLITSRSDARPEDAADFVQLAAILNDVAGAASVTPLAEQPLLGRLIPWVIDQVVDHPDNDESWQSISLFERLGGLATPALITAGWYDGFVGESLRTFVAVKDNADARLVVGPWSHSNLTGRNADRKFGIAATYPIQEATTMHKAFFDRHLRGETDALAGVPKVRLFVMGIDEWRDETDWPLPDTAYTPFYLGGSGAANTSTGGGTLSTSISGTESADTYLYDPADPVPSLGGTLLFHNGDNGPADQRPIHDRDDVLCYSTEVLTDPVEVTGTVSARLFVSSSAVDTDFTAKLVDVFPDGRAIALCDGIVRMRYRETLVNPTLIEAGEIYEVAIDMLATSNVFLPGHRIMVQVSSSNFPKYDRNSNTGGVIAREQLEEMCTAVNRIHRGPEHPSHIVLPIIKR
modifications: Mutant CocE polypeptide
**Q.** With B1 as the molecule, how does the “increased melting temperature compared to the wild-type CocE” value [4] read?
**A.** 5 degrees

**Q.** What about the detectable denaturation beginning ([4]; near-UV CD) of the same molecule?
**A.** approximately 28 °C

**Q.** What about the melting temperature ([4]; near-UV CD (260-320 nm), curve-fitting) of the same molecule?
**A.** 41.43 °C

**Q.** And the Km ([5]; 40 min @ 37° C.)?
**A.** 78.8 µM

**Q.** And the Km ([5]; no preincubation)?
**A.** 88.2 µM

**Q.** What about the “half-life at 37° C. relative to the wildtype” value [6] of the same molecule?
**A.** ~8 ×

**Q.** And the “#3 formation” value [7]?
**A.** 56.85 °C

**Q.** What about the “#2 formation” value [7] of the same molecule?
**A.** 38.11 °C

**Q.** And the “#1 melt” value [7]?
**A.** 39.22 °C

**Q.** And the “#2 melt” value [7]?
**A.** 54.56 °C

**Q.** And the “duration of prophylactic effects” value ([8]; 0.32 mg given 1, 10, 30, 60 minutes before 320 mg/kg cocaine)?
**A.** longer lasting than the wild-type CocE

**Q.** What about the lethality ([8]; 0.32 mg i.v. one minute after 1 g/kg cocaine i.p., rats) of the same molecule?
**A.** about 70%

B2: S159A (protein)
chain: B1 chain with S159A, R172T
modifications: Mutant CocE polypeptide
**Q.** For B2, which Km ([5]; 40 min @ 37° C.) is on record?
**A.** 15.7 µM

**Q.** And the Km ([5]; no preincubation)?
**A.** 43.6 µM

B3: T172R-F189K (protein, UniProt Q9L9D7 1-574, looked up, variant T172R F189K)
Cocaine esterase: B1 chain with F189K
**Q.** With B3 as the molecule, how does the “#3 formation” value [7] read?
**A.** 57.23 °C

**Q.** And the “#2 formation” value [7]?
**A.** 46.81 °C

**Q.** What about the “#1 melt” value [7] of the same molecule?
**A.** 38.8 °C

**Q.** What about the “#2 melt” value [7] of the same molecule?
**A.** 48.42 °C

B4: T172R/A193D: mutant CocE polypeptide (protein, UniProt Q9L9D7 1-574, looked up, variant T172R A193D)
Cocaine esterase: B1 chain with A193D
**Q.** For B4, which “#3 formation” value [7] is on record?
**A.** 58.72 °C

**Q.** And the “#2 formation” value [7]?
**A.** 46.47 °C

**Q.** What about the “#1 melt” value [7] of the same molecule?
**A.** 38.11 °C

**Q.** What about the “#2 melt” value [7] of the same molecule?
**A.** 47.68 °C

B5: T172R/G173Q (protein, UniProt Q9L9D7 1-574, looked up, variant T172R G173Q)
Cocaine esterase: B1 chain with G173Q
**Q.** With B5 as the molecule, how does the “#3 formation” value [7] read?
**A.** 56 °C and 56.61 °C

**Q.** What about the “#2 formation” value [7] of the same molecule?
**A.** 45.61 °C

**Q.** And the “#1 melt” value [7]?
**A.** 40 °C and 40.62 °C

**Q.** And the “#2 melt” value [7]?
**A.** 46 °C and 46.17 °C

B6: Ala328W/Y332A: cocaine hydrolyzing enzyme of Sun et al., 2002a (genetically engineered BChE) (protein, UniProt P06276 29-602, looked up, variant A328W Y332A)
Cholinesterase: EDDIIIATKNGKVRGMNLTVFGGTVTAFLGIPYAQPPLGRLRFKKPQSLTKWSDIWNATKYANSCCQNIDQSFPGFHGSEMWNPNTDLSEDCLYLNVWIPAPKPKNATVLIWIYGGGFQTGTSSLHVYDGKFLARVERVIVVSMNYRVGALGFLALPGNPEAPGNMGLFDQQLALQWVQKNIAAFGGNPKSVTLFGESAGAASVSLHLLSPGSHSLFTRAILQSGSFNAPWAVTSLYEARNRTLNLAKLTGCSRENETEIIKCLRNKDPQEILLNEAFVVPYGTPLSVNFGPTVDGDFLTDMPDILLELGQFKKTQILVGVNKDEGTWFLVAGAPGFSKDNNSIITRKEFQEGLKIFFPGVSEFGKESILFHYTDWVDDQRPENYREALGDVVGDYNFICPALEFTKKFSEWGNNAFFYYFEHRSSKLPWPEWMGVMHGYEIEFVFGLPLERRDNYTKAEEILSRSIVKRWANFAKYGNPNETQNNSTSWPVFKSTEQKYLTLNTESTRIMTKLRAQQCRFWTSFFPKVLEMTGNIDEAEWEWKAGFHRWNNYMMDWKNQFNDYTSKKESCVGL
**Q.** For B6, which Kcat [9] is on record?
**A.** 2.57 s⁻¹

**Q.** And the Km [9]?
**A.** 18 µM
